Data taken from US20080181886A1, “Polypeptides That Bind Baff And/Or April” (Genentech, Inc., priority 2004, published 2008).

B1: TACI_d1d2: residues 21-116 of the TACI extracellular domain (both CRDs) with a C-terminal His-tag (protein, UniProt O14836 21-116, looked up, fragment)
chain: FPQGLWTGVAMRSCPEEQYWDPLLGTCMSCKTICNHQSQRTCAAFCRSLSCRKEQGKFYDHLLRDCISCASICGQHPKQCAYFCENKLRSPVNLPP
modifications: extracellular domain C-terminal His-tag
notes: residues 21-116 of the TACI extracellular domain (both CRDs) with a C-terminal His-tag
B2: shortTACI: TACI splice variant: first 20 residues, one tryptophan in place of the 47 residues encoding CRD1, then the rest of the protein (protein)
chain: MSGLGRSRRGGRSRVDQEERWSLSCRKEQGKFYDHLLRDCISCASICGQHPKQCAYFCENKLRSPVNLPPELRRQRSGEVENNSDNSGRYQGLEHRGSEASPALPGLKLSADQVALVYSTLGLCLCAVLCCFLVAVACFLKKRGDPCSCQPRSRPRQSPAKSSQDHAMEAGSPVSTSPEPVETCSFCFPECRAPTQESAVTPGTPDPTCAGRWGCHTRTTVLQPCPHIPDSGLGIVCVPAQEGGPGA

How the values were obtained:
BAFF [1] = biological target: T1, BAFF (Homo sapiens, UniProt Q9Y275); assay: Competitive ELISA, BAFF; format: binding; conditions: data not shown
T1 construct: made in house
T1 sequence (Q9Y275 82-285 limits assumed): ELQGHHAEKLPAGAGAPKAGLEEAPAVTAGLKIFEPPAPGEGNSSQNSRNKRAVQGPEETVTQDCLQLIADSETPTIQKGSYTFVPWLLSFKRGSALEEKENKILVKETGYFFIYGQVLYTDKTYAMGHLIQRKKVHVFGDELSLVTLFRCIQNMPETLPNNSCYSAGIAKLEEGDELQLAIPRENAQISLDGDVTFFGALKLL

APRIL [2] = biological target: T2, APRIL (Mus musculus, UniProt Q9D777); assay: Competitive surface plasmon resonance, APRIL binding to immobilized BCMA-Fc; set-up: species or system murine; conditions: competition with immobilized BCMA-Fc
T2 construct: made in house
T2 sequence (Q9D777 105-241): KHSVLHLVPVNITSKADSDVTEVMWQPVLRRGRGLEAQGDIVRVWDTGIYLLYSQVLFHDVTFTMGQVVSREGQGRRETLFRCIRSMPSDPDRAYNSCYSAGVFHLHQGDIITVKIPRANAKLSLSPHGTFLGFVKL
Excerpt: (§1) Surface plasmon resonance (SPR) measurements on a BIAcore 3000 instrument (Pharmacia Biosensor) were used to measure binding affinities of receptors to immobilized APRIL and BAFF by competition binding. […] In these experiments, receptors in solution competed for binding of ligand in solution at room temperature with immobilized BCMA-Fc. BCMA-Fc was coupled to flow cell 2 of a CM4 sensor chip, using the amine coupling protocol supplied by the manufacturer, at a high density (4500 resonance units) so that the initial rate of binding was linearly dependent on the concentration of free ligand. In all experiments flow cell 1 was ethanolamine-blocked and used as the reference cell. Washing with 10 mM HCl regenerated flow cells between sample injections. In order to determine the ligand concentration necessary to obtain the optimal for competition experiments, a preliminary binding study was performed for each ligand where two-fold dilutions of the ligand ranging from 400 nM to 6.25 nM were injected over the BCMA-Fc surface. […] The IC50 values were calculated using a four-parameter curve fit (y=((m1−m4)/(1+(m0/m3)̂m2))+m4) of the initial binding rates for the receptor/control (Vi/Vo) as a function of receptor concentration.

APRIL [3] = biological target: T2, APRIL; assay: Competitive ELISA, APRIL; format: binding, murine; conditions: data not shown
BAFF [4] = biological target: T1, BAFF; assay: Competitive surface plasmon resonance, BAFF binding to immobilized BCMA-Fc; conditions: competition with immobilized BCMA-Fc
Excerpt: as §1

NF-κB = NF-κB ELAM-luciferase reporter assay in co-transfected 293T cells; format: cell-based, Human; conditions: 293T cells co-transfected with ligand and receptor; 20 hr after transfection
Protocol: Human 293T cells were co-transfected with the indicated amounts of expression plasmids along with 250 ng of ELAM-luciferase reporter gene plasmid and 25 ng pRL-TK. 20 hr after transfection, reporter gene activity was determined with the dual-luciferase reporter assay system (Promega).

| Molecule | binding to BAFF, in words (BAFF [1]) | affinity for APRIL, comparison in words (APRIL [2]) | binding to APRIL, in words (APRIL [3]) | affinity for BAFF, comparison in words (BAFF [4]) | NF-κB activation by APRIL or BAFF (NF-κB) |
| --- | --- | --- | --- | --- | --- |
| B1 | no improvement in binding | did not confer additional affinity | no improvement in binding | did not confer additional affinity | – |
| B2 | – | – | – | – | capable of mediating NF-κB activation |
